From article PMC12607630, “ZapC crosslinks FtsZ filaments through a dual-binding mechanism modulated by the intrinsically disordered linker of FtsZ in Escherichia coli” (mBio, 2025)
Substitutions are numbered along the chain they refer to. Names may count otherwise. “And” between values parts separate entries of the source, which are not always exact repeats. Equal entries are not always repeated.

T1: SUMO-FtsZ (Escherichia coli, UniProt P0A9A6 1-383)
T1 construct: FtsZ, Escherichia coli; also called 6×His-SUMO-FtsZ; SUMO fusion containing full-length FtsZ; source: E. coli BL21(DE3), plasmid pLY17 (pE-SUMO-Amp, PT7::6×his-sumo-ftsZ), purified (Ni-NTA); not shown: 6×His, N-terminal, kept; SUMO, N-terminal, kept
T1 sequence (looked up): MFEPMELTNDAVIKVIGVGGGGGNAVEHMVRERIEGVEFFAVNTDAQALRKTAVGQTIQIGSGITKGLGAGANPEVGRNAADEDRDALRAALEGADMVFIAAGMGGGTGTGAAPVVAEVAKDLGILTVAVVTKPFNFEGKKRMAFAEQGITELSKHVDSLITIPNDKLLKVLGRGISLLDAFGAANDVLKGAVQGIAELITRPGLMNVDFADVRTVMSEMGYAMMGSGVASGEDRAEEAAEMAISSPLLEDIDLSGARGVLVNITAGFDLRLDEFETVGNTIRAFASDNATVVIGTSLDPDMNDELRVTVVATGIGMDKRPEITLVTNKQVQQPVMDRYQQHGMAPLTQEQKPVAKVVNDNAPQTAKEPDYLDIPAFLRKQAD

T2: FtsZ^F285S (untagged) (Escherichia coli, UniProt P0A9A6 1-383, F285S)
T2 construct: FtsZ, Escherichia coli; source: E. coli BL21(DE3), derivative of pLY17, purified (Ni-NTA; 6×His-SUMO tag removed with Ulp1); not shown: 6×His, N-terminal, cleaved; SUMO, N-terminal, cleaved
T2 sequence (looked up): T1 sequence (looked up) with F285S

T3: 6×His-SUMO-FtsZ (Escherichia coli, UniProt P0A9A6 1-383)
T3 construct: FtsZ of Escherichia coli, full length, fused behind 6×His-SUMO; Forward primer BsaI-out-F starts the FtsZ insert at codon 2; source: E. coli BL21(DE3), plasmid pLY17, purified (Ni-NTA); not shown: 6×His-SUMO, N-terminal, kept
T3 sequence (looked up): T1 sequence (looked up)

T4: FtsZ (untagged, wild type) (Escherichia coli, UniProt P0A9A6 1-383)
T4 construct: also called wild-type FtsZ; source: E. coli BL21(DE3), plasmid pLY17, purified (Ni-NTA); 6×His-SUMO tag removed with Ulp1; not shown: 6×His-SUMO, N-terminal, cleaved
T4 sequence (looked up): T1 sequence (looked up)

B1: 6×His-SUMO-FtsZ 316-383 (domain or fragment, Escherichia coli, UniProt P0A9A6 316-383, looked up)
chain: GMDKRPEITLVTNKQVQQPVMDRYQQHGMAPLTQEQKPVAKVVNDNAPQTAKEPDYLDIPAFLRKQAD
notes: source: E. coli BL21(DE3), plasmid pLY342, purified (Ni-NTA); not shown: 6×His-SUMO, N-terminal, kept
B2: SUMO-FtsZ^316-383 (domain or fragment, Escherichia coli, UniProt P0A9A6 316-383, looked up)
chain: B1 chain
notes: Held on Ni-NTA biosensors; plasmid construction is in the Supplemental Information; also called SUMO fusion containing the CTL and CTP; source: E. coli, purified SUMO fusion; not shown: 6×His, N-terminal, kept; SUMO, N-terminal, kept
B3: ZapC (untagged) (natural protein)
chain: not shown
notes: ZapC, Escherichia coli; also called untagged ZapC; source: E. coli, plasmid pLY28 (pE-SUMO-Amp, PT7::6×his-sumo-zapC), purified (Ni-NTA; 6×His-SUMO tag removed with Ulp1); not shown: 6×His, N-terminal, cleaved; SUMO, N-terminal, cleaved
B4: FtsZ (wild-type, untagged) (natural protein, Escherichia coli, UniProt P0A9A6 1-383, looked up)
chain: T1 sequence (looked up)
notes: FtsZ, Escherichia coli; Made from the same 6×his-sumo-ftsZ plasmid as the fusion that the methods call full-length FtsZ; also called wild-type FtsZ; untagged FtsZ; source: E. coli BL21(DE3), plasmid pLY17, purified (Ni-NTA; 6×His-SUMO tag removed with Ulp1); not shown: 6×His, N-terminal, cleaved; SUMO, N-terminal, cleaved
B5: 6×His-ZapC (natural protein)
chain: not shown
notes: ZapC, Escherichia coli; also called His-tagged ZapC; source: E. coli, plasmid pSD323 (pQE80, Plac::6×His-ZapC), purified (Ni-NTA) as for FtsZ; not shown: 6×His, N-terminal, kept
B6: ZapC (untagged) (natural protein)
chain: not shown
notes: ZapC, FtsZ-associated protein of Escherichia coli; source: E. coli BL21(DE3), plasmid pLY28, purified (Ni-NTA); 6×His-SUMO tag removed with Ulp1; not shown: 6×His-SUMO, N-terminal, cleaved
B7: 6×His-ZapC F30D, K94D (natural protein)
chain: not shown
notes: ZapC of Escherichia coli with F30D and K94D; Derivative of pSD323 by site-directed mutagenesis; also called ZapC^F, K; -ZapCF, K; source: E. coli, plasmid pLY317 (pQE80L, Plac::6Xhis-zapC F30D, K94D), purified (Ni-NTA); not shown: His6, N-terminal, kept
B8: FtsZ^1–370 (domain or fragment, Escherichia coli, UniProt P0A9A6 1-370, looked up)
chain: MFEPMELTNDAVIKVIGVGGGGGNAVEHMVRERIEGVEFFAVNTDAQALRKTAVGQTIQIGSGITKGLGAGANPEVGRNAADEDRDALRAALEGADMVFIAAGMGGGTGTGAAPVVAEVAKDLGILTVAVVTKPFNFEGKKRMAFAEQGITELSKHVDSLITIPNDKLLKVLGRGISLLDAFGAANDVLKGAVQGIAELITRPGLMNVDFADVRTVMSEMGYAMMGSGVASGEDRAEEAAEMAISSPLLEDIDLSGARGVLVNITAGFDLRLDEFETVGNTIRAFASDNATVVIGTSLDPDMNDELRVTVVATGIGMDKRPEITLVTNKQVQQPVMDRYQQHGMAPLTQEQKPVAKVVNDNAPQTAKEPD
notes: FtsZ, Escherichia coli, residues 1-370; Plasmid construction is in the Supplemental Information; also called FtsZ lacking the CTP; source: E. coli BL21(DE3), SUMO-tag purification system, purified; not shown: 6×His, N-terminal, cleaved; SUMO, N-terminal, cleaved

Key:
Details in all cases: both partners purified
ZapC (untagged) [1] = biological target: B6; experiment: BLI; 6×His-SUMO fusions of FtsZ or its parts, or SUMO alone (0.5 µM), held on Ni-NTA biosensors, untagged ZapC in solution; Octet-Red96, 30°C, 1× Pol buffer (50 mM HEPES-NaOH pH 6.8, 50 mM KCl, 10 mM MgCl2); apparent Kd from the signal at the end of association against concentration, one-site fit; three repeats with mean (X) and SD
ZapC (untagged) [2] = biological target: B3; experiment: BLI; SUMO fusions of FtsZ or its parts, or SUMO alone (0.5 µM), held on Ni-NTA biosensors; untagged ZapC in solution; Octet-Red96, 30°C, 1× Pol buffer; apparent Kd from the signal at the end of association, one-site fit
SUMO-FtsZ = biological target: T1, SUMO-FtsZ; experiment: as above
[3] = biological target: T5, 6×His-ZapC double mutant (F30D, K94D) (Escherichia coli, UniProt P75862 1-180, F30D | K94D); experiment: BLI; 6×His-ZapC or its mutants (0.5 µM) loaded on Ni-NTA biosensors; FtsZ or its variants in solution; Octet-Red96, 30°C, 1× Pol buffer (50 mM HEPES-NaOH pH 6.8, 50 mM KCl, 10 mM MgCl2); apparent Kd from the signal at the end of association, one-site fit
T5 construct: ZapC, Escherichia coli; The text calls it only 'the double mutant' after naming ZapC^F30D and ZapC^K94D; also called the double mutant; source: E. coli, derivative of pSD323, purified (Ni-NTA) as for FtsZ; not shown: 6×His, N-terminal, kept

[4] = biological target: B4; experiment: as above
FtsZ^F285S (untagged) = biological target: T2, FtsZ^F285S (untagged); experiment: as above
6×His-SUMO-FtsZ = biological target: T3, 6×His-SUMO-FtsZ; experiment: BLI; 6×His-SUMO fusions of FtsZ or its parts, or SUMO alone (0.5 µM), held on Ni-NTA biosensors, untagged ZapC in solution; Octet-Red96, 30°C, 1× Pol buffer (50 mM HEPES-NaOH pH 6.8, 50 mM KCl, 10 mM MgCl2); apparent Kd from the signal at the end of association against concentration, one-site fit; three repeats with mean (X) and SD
[5] = biological target: T4, FtsZ (untagged, wild type); experiment: BLI; 6×His-ZapC or its mutants (0.5 µM) loaded on Ni-NTA biosensors, untagged FtsZ or its variants in solution; Octet-Red96, 30°C, 1× Pol buffer (50 mM HEPES-NaOH pH 6.8, 50 mM KCl, 10 mM MgCl2); apparent Kd from the signal at the end of association against concentration, one-site fit; three repeats with mean (X) and SD
6×His-ZapC = biological target: B5; experiment: BLI; 6×His-ZapC or its mutants (0.5 µM) loaded on Ni-NTA biosensors; FtsZ or its variants in solution; Octet-Red96, 30°C, 1× Pol buffer (50 mM HEPES-NaOH pH 6.8, 50 mM KCl, 10 mM MgCl2); apparent Kd from the signal at the end of association, one-site fit

B1
Kd (ZapC (untagged) [1]): 11.2 µM and 10.4 µM and 8.11 µM and 9.89 µM

B2
Kd (ZapC (untagged) [2]): 10 µM

B3
Kd (SUMO-FtsZ): 1.5 µM

B4
fold increase of Kd against wild-type ZapC [3]: 12 fold

B5
Kd [4]: 0.39 µM | Kd (FtsZ^F285S (untagged)): 6.37 µM

B6
Kd (6×His-SUMO-FtsZ): 1.5 µM and 1.28 µM and 1.9 µM and 1.56 µM

B7
Kd [5]: 6.39 µM and 5.16 µM and 4.77 µM and 5.44 µM

B8
fold decrease of affinity against wild-type FtsZ (6×His-ZapC): ~3 fold
